Laboratory results: PMC3660597, “Investigation of Specificity Determinants in Bacterial tRNA-Guanine Transglycosylase Reveals Queuine, the Substrate of Its Eucaryotic Counterpart, as Inhibitor” (PLoS ONE, 2013)

B1: Z. mobilis Tgt ("wild type" Tgt = Tgt(Tyr106Phe)) (Zymomonas mobilis subsp. mobilis ZM4 = ATCC 31821; V233G/Y106F) (protein)
chain: VEATAQETDRPRFSFSIAAREGKARTGTIEMKRGVIRTPAFMPVGTAATVKALKPETVRATGADIILGNTYHLMLRPGAERIAKLGGLHSFMGWDRPILTDSGGFQVMSLSSLTKQSEEGVTFKSHLDGSRHMLSPERSIEIQHLLGSDIVMAFDECTPYPATPSRAASSMERSMRWAKRSRDAFDSRKEQAENAALFGIQQGSVFENLRQQSADALAEIGFDGYAVGGLAGGEGQDEMFRVLDFSVPMLPDDKPHYLMGVGKPDDIVGAVERGIDMFDCVLPTRSGRNGQAFTWDGPINIRNARFSEDLTPLDSECHCAVCQKWSRAYIHHLIRAGEILGAMLMTEHNIAFYQQLMQKIRDSISEGRFSQFAQDFRARYFARNS
notes: recombinant from pET9d-ZM-Y106F in E. coli BL21(DE3)/pLysS, purified; homodimer; all variants including "wild type" carry Tyr106Phe
B2: Z. mobilis Tgt ("wild type" Tgt = Tgt(Tyr106Phe)) (Zymomonas mobilis subsp. mobilis ZM4 = ATCC 31821; C158V/V233G/Y106F) (protein)
chain: VEATAQETDRPRFSFSIAAREGKARTGTIEMKRGVIRTPAFMPVGTAATVKALKPETVRATGADIILGNTYHLMLRPGAERIAKLGGLHSFMGWDRPILTDSGGFQVMSLSSLTKQSEEGVTFKSHLDGSRHMLSPERSIEIQHLLGSDIVMAFDEVTPYPATPSRAASSMERSMRWAKRSRDAFDSRKEQAENAALFGIQQGSVFENLRQQSADALAEIGFDGYAVGGLAGGEGQDEMFRVLDFSVPMLPDDKPHYLMGVGKPDDIVGAVERGIDMFDCVLPTRSGRNGQAFTWDGPINIRNARFSEDLTPLDSECHCAVCQKWSRAYIHHLIRAGEILGAMLMTEHNIAFYQQLMQKIRDSISEGRFSQFAQDFRARYFARNS
notes: as for B1
B3: Z. mobilis Tgt ("wild type" Tgt = Tgt(Tyr106Phe)) (Zymomonas mobilis subsp. mobilis ZM4 = ATCC 31821; C158V/Y106F) (protein)
chain: VEATAQETDRPRFSFSIAAREGKARTGTIEMKRGVIRTPAFMPVGTAATVKALKPETVRATGADIILGNTYHLMLRPGAERIAKLGGLHSFMGWDRPILTDSGGFQVMSLSSLTKQSEEGVTFKSHLDGSRHMLSPERSIEIQHLLGSDIVMAFDEVTPYPATPSRAASSMERSMRWAKRSRDAFDSRKEQAENAALFGIQQGSVFENLRQQSADALAEIGFDGYAVGGLAVGEGQDEMFRVLDFSVPMLPDDKPHYLMGVGKPDDIVGAVERGIDMFDCVLPTRSGRNGQAFTWDGPINIRNARFSEDLTPLDSECHCAVCQKWSRAYIHHLIRAGEILGAMLMTEHNIAFYQQLMQKIRDSISEGRFSQFAQDFRARYFARNS
notes: as for B1
B4: Z. mobilis Tgt ("wild type" Tgt = Tgt(Tyr106Phe)) (Zymomonas mobilis subsp. mobilis ZM4 = ATCC 31821; Y106F) (protein)
chain: VEATAQETDRPRFSFSIAAREGKARTGTIEMKRGVIRTPAFMPVGTAATVKALKPETVRATGADIILGNTYHLMLRPGAERIAKLGGLHSFMGWDRPILTDSGGFQVMSLSSLTKQSEEGVTFKSHLDGSRHMLSPERSIEIQHLLGSDIVMAFDECTPYPATPSRAASSMERSMRWAKRSRDAFDSRKEQAENAALFGIQQGSVFENLRQQSADALAEIGFDGYAVGGLAVGEGQDEMFRVLDFSVPMLPDDKPHYLMGVGKPDDIVGAVERGIDMFDCVLPTRSGRNGQAFTWDGPINIRNARFSEDLTPLDSECHCAVCQKWSRAYIHHLIRAGEILGAMLMTEHNIAFYQQLMQKIRDSISEGRFSQFAQDFRARYFARNS
notes: as for B1

Experiments:
[1] = substrate: NCc1c[nH]c2nc(N)[nH]c(=O)c12; experiment: [3H]-preQ1 incorporation into tRNA(Tyr), scintillation counting; type: biochemical, Zymomonas mobilis; settings: 15 µM E. coli tRNA(Tyr), 200 mM HEPES pH 7.3, 20 mM MgCl2, 37°C, labelled compound
Excerpt: [3H]-preQ1 incorporation into tRNA(Tyr), scintillation counting on Z. mobilis Tgt ("wild type" Tgt = Tgt(Tyr106Phe))

purified protein = substrate: Nc1nc2nc[nH]c2c(=O)[nH]1; experiment: purified protein; type: biochemical, Zymomonas mobilis; settings: 15 µM E. coli tRNA(Tyr), 200 mM HEPES pH 7.3, 20 mM MgCl2, 37°C, labelled compound

Protein | Km [1] | kcat [1] | Km (purified protein) | kcat (purified protein)
B1 | 0.6 ± 0.1 µM | 0.0063 ± 0.0002 s⁻¹ | 1.0 ± 0.2 µM | 0.0046 ± 0.0003 s⁻¹
B2 | 13.5 ± 3.1 µM | 0.001 ± 0.0003 s⁻¹ | 2.7 ± 0.3 µM | 0.0006 ± 0.0001 s⁻¹
B3 | 16.0 ± 2.4 µM | 0.035 ± 0.0008 s⁻¹ | 1.4 ± 0.2 µM | 0.0275 ± 0.0002 s⁻¹
B4 | 0.9 ± 0.1 µM | 0.106 ± 0.0027 s⁻¹ | 1.2 ± 0.2 µM | 0.0558 ± 0.0001 s⁻¹
